Experimental data taken from the supplement of paper PMC6757056.
± gives the standard deviation of the averaged measurements.

B1: library; a variant is named by its letters at N, in order (parent)
chain: GCUGUCACCGAGAAACUGUGAAGUAUAUCUUAAACCUGGGCACUUAAAAGAUAUAUGGAGUUAGUAGUGCAACCUGCUCGGUCUGAUGAGUCCNNNNNNGGACGAAACAGC

What was measured:
[1] = variants of: B1; assay: normalized RNA/DNA level without ligand (relative to sTRSVctl = 100) (log10 (% of sTRSVctl)); HEK293T; ligand: cyclic di-GMP (c-di-GMP-II aptamer); higher = less ribozyme self-cleavage, higher mRNA level; conditions: reporter: mCherry (pCS4076), ligand present: no
How it was run: (§1)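 Total RNA, extracted with EDTA 72 h after HEK293T cells were transfected with 4 µg per 6-well well of reporter-linked ribozyme switch library plasmids, was reverse-transcribed, amplified, barcoded and sequenced. Ligand, if used, was added 1 h before transfection. RNA level was derived from RNA reads divided by DNA reads and normalized to a spiked-in non-cleaving sequence or to the top sequences. This was multiplied by 100 and log10-transformed, with the top set of 25 sequences and a ≥100 DNA read minimum.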

[2] = variants of: B1; assay: normalized RNA/DNA level with ligand (relative to sTRSVctl = 100) (log10 (% of sTRSVctl)); HEK293T; ligand: cyclic di-GMP (c-di-GMP-II aptamer); ligand concentration (+) RNA-Seq: 1 mM; higher = less ribozyme self-cleavage, higher mRNA level; conditions: reporter: mCherry (pCS4076), ligand present: yes
How it was run: as §1

Row | Variant | normalized RNA/DNA level without ligand (log10) [1] | normalized RNA/DNA level with ligand (log10) [2]
1 | UAUCAG | 1.72 ± 0.028 | 1.84 ± 0.13
2 | UAUCAU | 1.656 ± 0.0018 | 1.81 ± 0.12
3 | AAUUGU | 1.66 ± 0.061 | 1.83 ± 0.075
4 | AAUUGC | 1.696 ± 0.016 | 1.83 ± 0.091
5 | AAUUGA | 1.49 ± 0.096 | 1.72 ± 0.083
6 | ACAAGG | 1.33 ± 0.17 | 1.54 ± 0.098
7 | GAUGCG | 1.82 ± 0.063 | 1.89 ± 0.13
8 | GAUGCU | 1.73 ± 0.033 | 1.85 ± 0.12
9 | GAUGCC | 1.772 ± 0.014 | 1.84 ± 0.1
10 | GAUCAG | 1.8 ± 0.054 | 1.9 ± 0.13
11 | GAUCAC | 1.727 ± 0.016 | 1.84 ± 0.085
12 | CAUCGG | 1.78 ± 0.048 | 1.84 ± 0.12
13 | CAUCGC | 1.783 ± 0.015 | 1.87 ± 0.043
14 | CAUCGU | 1.74 ± 0.095 | 1.83 ± 0.098
15 | ACACUC | 1.637 ± 0.0033 | 1.77 ± 0.11
16 | UAUGAG | 1.653 ± 0.0081 | 1.82 ± 0.12
17 | CAUGAU | 1.57 ± 0.027 | 1.73 ± 0.13
18 | CAUGAG | 1.714 ± 0.012 | 1.84 ± 0.074
19 | AAUGCG | 1.704 ± 0.0078 | 1.82 ± 0.15
20 | AAUGCU | 1.73 ± 0.036 | 1.85 ± 0.12
21 | AAUGCC | 1.73 ± 0.034 | 1.83 ± 0.11
22 | AAUGCA | 1.666 ± 0.0048 | 1.78 ± 0.14
23 | CCACGU | 1.64 ± 0.046 | 1.81 ± 0.13
24 | CCACGG | 1.79 ± 0.058 | 1.89 ± 0.037

Row | Variant | normalized RNA/DNA level without ligand (log10) [1] | normalized RNA/DNA level with ligand (log10) [2]
25 | CCACGC | 1.66 ± 0.022 | 1.83 ± 0.12
26 | CCACGA | 1.6 ± 0.04 | 1.74 ± 0.086
27 | CAUCCG | 1.82 ± 0.035 | 1.88 ± 0.09
28 | CAUCCU | 1.6 ± 0.03 | 1.77 ± 0.1
29 | UCACCU | 1.7414 ± 0.00048 | 1.89 ± 0.12
30 | UCACCG | 1.75 ± 0.024 | 1.89 ± 0.12
31 | UCACCC | 1.83 ± 0.032 | 1.88 ± 0.096
32 | ACACGU | 1.62 ± 0.043 | 1.83 ± 0.081
33 | ACACGC | 1.554 ± 0.0051 | 1.76 ± 0.13
34 | CAUAUU | 1.45 ± 0.13 | 1.64 ± 0.067
35 | GAUCUC | 1.75 ± 0.02 | 1.89 ± 0.15
36 | GAUCUA | 1.67 ± 0.032 | 1.81 ± 0.097
37 | GAUCUU | 1.673 ± 0.0037 | 1.8 ± 0.091
38 | GAUCUG | 1.708 ± 0.016 | 1.84 ± 0.07
39 | GAUUCA | 1.72 ± 0.021 | 1.85 ± 0.064
40 | GAUUCU | 1.748 ± 0.014 | 1.86 ± 0.12
41 | GAUUCG | 1.7482 ± 0.0012 | 1.88 ± 0.06
42 | GAUUCC | 1.8 ± 0.097 | 1.87 ± 0.14
43 | CCAAUC | 1.55 ± 0.1 | 1.71 ± 0.1
44 | CCAAUU | 1.58 ± 0.06 | 1.72 ± 0.086
45 | UCAACC | 1.78 ± 0.044 | 1.9 ± 0.067
46 | UCAACA | 1.708 ± 0.0058 | 1.81 ± 0.096
47 | UCAACU | 1.707 ± 0.0018 | 1.86 ± 0.069
48 | UCAACG | 1.77 ± 0.024 | 1.89 ± 0.096

Row | Variant | normalized RNA/DNA level without ligand (log10) [1] | normalized RNA/DNA level with ligand (log10) [2]
49 | CAUUAG | 1.74 ± 0.021 | 1.84 ± 0.087
50 | CAUUAC | 1.6236 ± 0.00067 | 1.79 ± 0.13
51 | UAUGGG | 1.57 ± 0.078 | 1.73 ± 0.1
52 | UAUGGA | 1.53 ± 0.017 | 1.73 ± 0.098
53 | UAUGGC | 1.708 ± 0.015 | 1.82 ± 0.12
54 | GCAACU | 1.582 ± 0.0092 | 1.77 ± 0.13
55 | GCAACG | 1.54 ± 0.046 | 1.78 ± 0.11
56 | GCAACC | 1.647 ± 0.0045 | 1.79 ± 0.097
57 | CCACAC | 1.65 ± 0.037 | 1.79 ± 0.073
58 | CCACAA | 1.51 ± 0.032 | 1.7 ± 0.11
59 | CCACAG | 1.54 ± 0.028 | 1.75 ± 0.18
60 | CAUCUG | 1.76 ± 0.073 | 1.88 ± 0.13
61 | CAUCUU | 1.56 ± 0.04 | 1.75 ± 0.1
62 | CAUCUA | 1.4 ± 0.058 | 1.58 ± 0.066
63 | UCAAUC | 1.63 ± 0.01 | 1.8 ± 0.12
64 | AAUUCA | 1.62 ± 0.078 | 1.8 ± 0.12
65 | AAUUCC | 1.79 ± 0.028 | 1.88 ± 0.14
66 | AAUUCU | 1.769 ± 0.0077 | 1.9 ± 0.092
67 | AAUUCG | 1.6472 ± 0.0012 | 1.8 ± 0.12
68 | CCACCC | 1.798 ± 0.016 | 1.87 ± 0.097
69 | CCACCG | 1.74 ± 0.078 | 1.89 ± 0.14
70 | CCACCA | 1.7068 ± 0.0011 | 1.82 ± 0.11
71 | UAUGUU | 1.65 ± 0.008 | 1.79 ± 0.15
72 | UAUGUG | 1.71 ± 0.047 | 1.86 ± 0.13

Row | Variant | normalized RNA/DNA level without ligand (log10) [1] | normalized RNA/DNA level with ligand (log10) [2]
73 | UAUGUC | 1.73 ± 0.034 | 1.85 ± 0.099
74 | ACAAAG | 1.4 ± 0.073 | 1.6 ± 0.06
75 | ACAAAC | 1.55 ± 0.084 | 1.72 ± 0.091
76 | UAUCCA | 1.77 ± 0.062 | 1.86 ± 0.097
77 | UAUCCU | 1.755 ± 0.013 | 1.87 ± 0.13
78 | UAUCCC | 1.83 ± 0.0035 | 1.9 ± 0.055
79 | UAUCCG | 1.8 ± 0.022 | 1.87 ± 0.095
80 | GAUUGC | 1.685 ± 0.0072 | 1.84 ± 0.12
81 | GAUUGU | 1.65 ± 0.037 | 1.82 ± 0.09
82 | AAUUUU | 1.73 ± 0.033 | 1.85 ± 0.12
83 | AAUUUA | 1.61 ± 0.031 | 1.81 ± 0.15
84 | AAUUUC | 1.721 ± 0.0067 | 1.87 ± 0.08
85 | AAUUUG | 1.62 ± 0.071 | 1.75 ± 0.12
86 | AAUGAC | 1.63 ± 0.018 | 1.79 ± 0.081
87 | CAUGUG | 1.71 ± 0.022 | 1.85 ± 0.092
88 | CAUGUU | 1.72 ± 0.043 | 1.88 ± 0.085
89 | CAUGUC | 1.72 ± 0.035 | 1.82 ± 0.088
90 | CAUGUA | 1.44 ± 0.081 | 1.65 ± 0.072
91 | AAUCAG | 1.61 ± 0.057 | 1.76 ± 0.026
92 | AAUCAC | 1.71 ± 0.027 | 1.83 ± 0.096
93 | AAUCAU | 1.64 ± 0.02 | 1.78 ± 0.093
94 | AAUCAA | 1.51 ± 0.1 | 1.73 ± 0.078
95 | AAUAUU | 1.667 ± 0.015 | 1.83 ± 0.083
96 | GCAAUU | 1.48 ± 0.086 | 1.69 ± 0.1

Row | Variant | normalized RNA/DNA level without ligand (log10) [1] | normalized RNA/DNA level with ligand (log10) [2]
97 | UCACUC | 1.73 ± 0.068 | 1.89 ± 0.12
98 | UCACUA | 1.51 ± 0.022 | 1.73 ± 0.099
99 | GAUUUC | 1.79 ± 0.13 | 1.9 ± 0.12
100 | GAUUUG | 1.6 ± 0.025 | 1.76 ± 0.11
101 | GAUUUU | 1.656 ± 0.01 | 1.81 ± 0.14
102 | GAUGGC | 1.68 ± 0.051 | 1.8 ± 0.13
103 | GAUGGG | 1.54 ± 0.081 | 1.67 ± 0.16
104 | GAUGGU | 1.64 ± 0.057 | 1.8 ± 0.063
105 | GCAAGU | 1.39 ± 0.16 | 1.64 ± 0.082
106 | GCAAGA | 1.33 ± 0.12 | 1.54 ± 0.1
107 | GCAAGG | 1.41 ± 0.14 | 1.57 ± 0.11
108 | ACACCA | 1.59 ± 0.029 | 1.76 ± 0.11
109 | ACACCU | 1.63 ± 0.031 | 1.81 ± 0.078
110 | ACACCC | 1.73 ± 0.012 | 1.86 ± 0.069
111 | CCACUG | 1.39 ± 0.042 | 1.63 ± 0.12
112 | CCACUC | 1.7 ± 0.022 | 1.8 ± 0.1
113 | UAUCUC | 1.81 ± 0.039 | 1.9 ± 0.1
114 | UAUCUA | 1.683 ± 0.0069 | 1.81 ± 0.097
115 | UAUCUG | 1.725 ± 0.011 | 1.87 ± 0.089
116 | UAUCUU | 1.72 ± 0.054 | 1.88 ± 0.088
